According to the supplement of paper PMC5998384:

Key:
HeLa Kyoto [1] = experiment: melting temperature (median over replicates), in situ; higher = more thermally stable
HeLa Kyoto [2] = experiment: solubility change mitosis vs G1/S (difference of NP-40 vs SDS log2 ratios) (log2 ratio difference); higher = more soluble in mitosis
HeLa Kyoto [3] = experiment: solubility in G1/S (NP-40 vs SDS abundance) (log2 ratio); higher = more soluble; conditions: cell cycle stage: G1/S
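For melting temperature (median over replicates), in situ in this document: HeLa Kyoto cells synchronized by double thymidine or nocodazole block, proteins quantified by TMT10plex mass spectrometry, three independent biological replicates.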
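For solubility change mitosis vs G1/S (difference of NP-40 vs SDS log2 ratios) in this document: synchronized HeLa Kyoto cells (double thymidine block for G1/S, nocodazole release for mitosis), protein amounts in NP-40 versus SDS lysates quantified by mass spectrometry, three biological replicates.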
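For solubility in G1/S (NP-40 vs SDS abundance) in this document: HeLa Kyoto cells arrested at G1/S by double thymidine block, proteins quantified by TMT10plex mass spectrometry in mild NP-40 versus SDS extracts, three biological replicates.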

Sequence | melting temperature (HeLa Kyoto [1]; cell cycle stage: mitosis) | solubility change mitosis (log2) (HeLa Kyoto [2]) | solubility in G1/S (log2) (HeLa Kyoto [3]) | melting temperature (HeLa Kyoto [1]; cell cycle stage: G1/S)
MNSVRAANRRPRRVSRPRPVQQQQQQPPQQPPPQPPQQQPPQQQPPPPPQQQQQQQPPPPPPPPPPLPQERNNVGERDDDVPADMVAEESGPGAQNSPYQLRRKTLLPKRTACPTKNSMEGASTSTTENFGHRAKRARVSGKSQDLSAAPAEQYLQEKLPDEVVLKIFSYLLEQDLCRAACVCKRFSELANDPILWKRLYMEVFEYTRPMMHPEPGKFYQINPEEYEHPNPWKESFQQLYKGAHVKPGFAEHFYSNPARYKGRENMLYYDTIEDALGGVQEAHFDGLIFVHSGIYTDEWIYIESPITMIGAAPGKVADKVIIENTRDSTFVFMEGSEDAYVGYMTIRFNPDDKSAQHHNAHHCLEITVNCSPIIDHCIIRSTCTVGSAVCVSGQGACPTIKHCNISDCENVGLYITDHAQGIYEDNEISNNALAGIWVKNHGNPIIRRNHIHHGRDVGVFTFDHGMGYFESCNIHRNRIAGFEVKAYANPTVVRCEIHHGQTGGIYVHEKGRGQFIENKIYANNFAGVWITSNSDPTIRGNSIFNGNQGGVYIFGDGRGLIEGNDIYGNALAGIQIRTNSCPIVRHNKIHDGQHGGIYVHEKGQGVIEENEVYSNTLAGVWVTTGSTPVLRRNRIHSGKQVGVYFYDNGHGVLEDNDIYNHMYSGVQIRTGSNPKIRRNKIWGGQNGGILVYNSGLGCIEDNEIFDNAMAGVWIKTDSNPTLRRNKIHDGRDGGICIFNGGRGLLEENDIFRNAQAGVLISTNSHPILRKNRIFDGFAAGIEITNHATATLEGNQIFNNRFGGLFLASGVNVTMKDNKIMNNQDAIEKAVSRGQCLYKISSYTSYPMHDFYRCHTCNTTDRNAICVNCIKKCHQGHDVEFIRHDRFFCDCGAGTLSNPCTLAGEPTHDTDTLYDSAPPIESNTLQHN [FBXO11] | 52.6 °C | 0.764 | -1.25 | 
MPVVWPTLLDLSRDECKRILRKLELEAYAGVISALRAQGDLTKEKKDLLGELSKVLSISTERHRAEVRRAVNDERLTTIAHNMSGPNSSSEWSIEGRRLVPLMPRLVPQTAFTVTANAVANAAIQHNASLPVPAETGSKEVVCYSYTSTTSTPTSTPVPSGSIATVKSPRPASPASNVVVLPSGSTVYVKSVSCSDEDEKPRKRRRTNSSSSSPVVLKEVPKAVVPVSKTITVPVSGSPKMSNIMQSIANSLPPHMSPVKITFTKPSTQTTNTTTQKVIIVTTSPSSTFVPNILSKSHNYAAVTKLVPTSVIASTTQKPPVVITASQSSLVSNSSSGSSSSTPSPIPNTVAVTAVVSSTPSVVMSTVAQGVSTSAIKMASTRLPSPKSLVSAPTQILAQFPKQHQQSPKQQLYQVQQQTQQQVAQPSPVSHQQQPQQSPLPPGIKPTIQIKQESGVKIITQQVQPSKILPKPVTATLPTSSNSPIMVVSSNGAIMTTKLVTTPTGTQATYTRPTVSPSIGRMAATPGAATYVKTTSGSIITVVPKSLATLGGKIISSNIVSGTTTKITTIPMTSKPNVIVVQKTTGKGTTIQGLPGKNVVTTLLNAGGEKTIQTVPTGAKPAILTATRPITKMIVTQPKGIGSTVQPAAKIIPTKIVYGQQGKTQVLIKPKPVTFQATVVSEQTRQLVTETLQQASRVAEAGNSSIQEGKEEPQNYTDSSSSSTESSQSSQDSQPVVHVIASRRQDWSEHEIAMETSPTIIYQDVSSESQSATSTIKALLELQQTTVKEKLESKPRQPTIDLSQMAVPIQMTQEKRHSPESPSIAVVESELVAEYITTERTDEGTEVAFPLLVSHRSQPQQPSQPQRTLLQHVAQSQTATQTSVVVKSIPASSPGAITHIMQQALSSHTAFTKHSEELGTEEGEVEEMDTLDPQTGLFYRSALTQSQSAKQQKLSQPPLEQTQLQVKTLQCFQTKQKQTIHLQADQLQHKLPQMPQLSIRHQKLTPLQQEQAQPKPDVQHTQHPMVAKDRQLPTLMAQPPQTVVQVLAVKTTQQLPKLQQAPNQPKIYVQPQTPQSQMSLPASSEKQTASQVEQPIITQGSSVTKITFEGRQPPTVTKITGGSSVPKLTSPVTSISPIQASEKTAVSDILKMSLMEAQIDTNVEHMIVDPPKKALATSMLTGEAGSLPSTHMVVAGMANSTPQQQKCRESCSSPSTVGSSLTTRKIDPPAVPATGQFMRIQNVGQKKAEESPAEIIIQAIPQYAIPCHSSSNVVVEPSGLLELNNFTSQQLDDEETAMEQDIDSSTEDGTEPSPSQSSAERS [EMSY] | 50.6 °C | 0.0269 | -0.0948 | 44.6 °C
MQTSSSRSVHLSEWQKNYFAITSGICTGPKADAYRAQILRIQYAWANSEISQVCATKLFKKYAEKYSAIIDSDNVESGLNNYAENILTLAGSQQTDSDKWQSGLSINNVFKMSSVQKMMQAGKKFKDSLLEPALASVVIHKEATVFDLPKFSVCGSSQESDSLPNSAHDRDRTQDFPESNRLKLLQNAQPPMVTNTARTCPTFSAPVGESATAKFHVTPLFGNVKKENHSSAKENIGLNVFLSNQSCFPAACENPQRKSFYGSGTIDALSNPILNKACSKTEDNGPKEDSSLPTFKTAKEQLWVDQQKKYHQPQRASGSSYGGVKKSLGASRSRGILGKFVPPIPKQDGGEQNGGMQCKPYGAGPTEPAHPVDERLKNLEPKMIELIMNEIMDHGPPVNWEDIAGVEFAKATIKEIVVWPMLRPDIFTGLRGPPKGILLFGPPGTGKTLIGKCIASQSGATFFSISASSLTSKWVGEGEKMVRALFAVARCQQPAVIFIDEIDSLLSQRGDGEHESSRRIKTEFLVQLDGATTSSEDRILVVGATNRPQEIDEAARRRLVKRLYIPLPEASARKQIVINLMSKEQCCLSEEEIEQIVQQSDAFSGADMTQLCREASLGPIRSLQTADIATITPDQVRPIAYIDFENAFRTVRPSVSPKDLELYENWNKTFGCGK [FIGNL1] | 48.6 °C | -0.219 | -0.0197 | 
MRRFKRKHLTAIDCQHLARSHLAVTQPFGQRWTNRDPNHGLYPKPRTKRGSRGQGSQRCIPEFFLAGKQPCTNDMAKSNSVGQDSCQDSEGDMIFPAESSCALPQEGSAGPGSPGSAPPSRKRSWSSEEESNQATGTSRWDGVSKKAPRHHLSVPCTRPREARQEAEDSTSRLSAESGETDQDAGDVGPDPIPDSYYGLLGTLPCQEALSHICSLPSEVLRHVFAFLPVEDLYWNLSLVCHLWREIISDPLFIPWKKLYHRYLMNEEQAVSKVDGILSNCGIEKESDLCVLNLIRYTATTKCSPSVDPERVLWSLRDHPLLPEAEACVRQHLPDLYAAAGGVNIWALVAAVVLLSSSVNDIQRLLFCLRRPSSTVTMPDVTETLYCIAVLLYAMREKGINISNRIHYNIFYCLYLQENSCTQATKVKEEPSVWPGKKTIQLTHEQQLILNHKMEPLQVVKIMAFAGTGKTSTLVKYAEKWSQSRFLYVTFNKSIAKQAERVFPSNVICKTFHSMAYGHIGRKYQSKKKLNLFKLTPFMVNSVLAEGKGGFIRAKLVCKTLENFFASADEELTIDHVPIWCKNSQGQRVMVEQSEKLNGVLEASRLWDNMRKLGECTEEAHQMTHDGYLKLWQLSKPSLASFDAIFVDEAQDCTPAIMNIVLSQPCGKIFVGDPHQQIYTFRGAVNALFTVPHTHVFYLTQSFRFGVEIAYVGATILDVCKRVRKKTLVGGNHQSGIRGDAKGQVALLSRTNANVFDEAVRVTEGEFPSRIHLIGGIKSFGLDRIIDIWILLQPEEERRKQNLVIKDKFIRRWVHKEGFSGFKRYVTAAEDKELEAKIAVVEKYNIRIPELVQRIEKCHIEDLDFAEYILGTVHKAKGLEFDTVHVLDDFVKVPCARHNLPQLPHFRVESFSEDEWNLLYVAVTRAKKRLIMTKSLENILTLAGEYFLQAELTSNVLKTGVVRCCVGQCNNAIPVDTVLTMKKLPITYSNRKENKGGYLCHSCAEQRIGPLAFLTASPEQVRAMERTVENIVLPRHEALLFLVF [FBXO18] | 52.4 °C | -0.0335 | -0.21 | 51.7 °C
MRRYLRVVVLCVACGFCSLLYAFSQLAVSLEEGTGGGGGKPQAAVASWLAGGGRGAVRGAGVAGPAAHPGVSDRCKDFSLCYWNPYWMLPSDVCGMNCFWEAAFRYSLKIQPVEKMHLAVVACGERLEETMTMLKSAIIFSIKPLQFHIFAEDQLHHSFKGRLDNWSFLQTFNYTLYPITFPSENAAEWKKLFKPCASQRLFLPLILKEVDSLLYVDTDILFLRPVDDIWSLLKKFNSTQIAAMAPEHEEPRIGWYNRFARHPYYGKTGVNSGVMLMNMTRMRRKYFKNDMTTVRLQWGDILMPLLKKYKLNITWGDQDLLNIVFFHNPESLFVFPCQWNYRPDHCIYGSNCQEAEEGGIFILHGNRGVYHDDKQPAFRAVYEALRNCSFEDDNIRSLLKPLELELQKTVHTYCGKIYKIFIKQLAKSVRDRYARSPKEK [GXYLT1] |  | 0.0753 | 0.171 | 53.9 °C
MSAGGSARKSTGRSSYYYRLLRRPRLQRQRSRSRSRTRPARESPQERPGSRRSLPGSLSEKSPSMEPSAATPFRVTGFLSRRLKGSIKRTKSQPKLDRNHSFRHILPGFRSAAAAAADNERSHLMPRLKESRSHESLLSPSSAVEALDLSMEEEVVIKPVHSSILGQDYCFEVTTSSGSKCFSCRSAAERDKWMENLRRAVHPNKDNSRRVEHILKLWVIEAKDLPAKKKYLCELCLDDVLYARTTGKLKTDNVFWGEHFEFHNLPPLRTVTVHLYRETDKKKKKERNSYLGLVSLPAASVAGRQFVEKWYPVVTPNPKGGKGPGPMIRIKARYQTITILPMEMYKEFAEHITNHYLGLCAALEPILSAKTKEEMASALVHILQSTGKVKDFLTDLMMSEVDRCGDNEHLIFRENTLATKAIEEYLKLVGQKYLQDALGEFIKALYESDENCEVDPSKCSAADLPEHQGNLKMCCELAFCKIINSYCVFPRELKEVFASWRQECSSRGRPDISERLISASLFLRFLCPAIMSPSLFNLLQEYPDDRTARTLTLIAKVTQNLANFAKFGSKEEYMSFMNQFLEHEWTNMQRFLLEISNPETLSNTAGFEGYIDLGRELSSLHSLLWEAVSQLEQSIVSKLGPLPRILRDVHTALSTPGSGQLPGTNDLASTPGSGSSSISAGLQKMVIENDLSGLIDFTRLPSPTPENKDLFFVTRSSGVQPSPARSSSYSEANEPDLQMANGGKSLSMVDLQDARTLDGEAGSPAGPDVLPTDGQAAAAQLVAGWPARATPVNLAGLATVRRAGQTPTTPGTSEGAPGRPQLLAPLSFQNPVYQMAAGLPLSPRGLGDSGSEGHSSLSSHSNSEELAAAAKLGSFSTAAEELARRPGELARRQMSLTEKGGQPTVPRQNSAGPQRRIDQPPPPPPPPPPAPRGRTPPNLLSTLQYPRPSSGTLASASPDWVGPSTRLRQQSSSSKGDSPELKPRAVHKQGPSPVSPNALDRTAAWLLTMNAQLLEDEGLGPDPPHRDRLRSKDELSQAEKDLAVLQDKLRISTKKLEEYETLFKCQEETTQKLVLEYQARLEEGEERLRRQQEDKDIQMKGIISRLMSVEEELKKDHAEMQAAVDSKQKIIDAQEKRIASLDAANARLMSALTQLKERYSMQARNGISPTNPTKLQITENGEFRNSSNC [DAB2IP] | 51 °C | 0.0598 | 0.117 | 49.5 °C
MSAHSMLCERIAIAKELIKRAESLSRSRKGGIEGGAKLCSKLKAELKFLQKVEAGKVAIKESHLQSTNLTHLRAIVESAENLEEVVSVLHVFGYTDTLGEKQTLVVDVVANGGHTWVKAIGRKAEALHNIWLGRGQYGDKSIIEQAEDFLQASHQQPVQYSNPHIIFAFYNSVSSPMAEKLKEMGISVRGDIVAVNALLDHPEELQPSESESDDEGPELLQVTRVDRENILASVAFPTEIKVDVCKRVNLDITTLITYVSALSYGGCHFIFKEKVLTEQAEQERKEQVLPQLEAFMKDKELFACESAVKDFQSILDTLGGPGERERATVLIKRINVVPDQPSERALRLVASSKINSRSLTIFGTGDTLKAITMTANSGFVRAANNQGVKFSVFIHQPRALTESKEALATPLPKDYTTDSEH [C7ORF25] | 50 °C | 0.0164 | 0.0643 | 50.1 °C
